{"source": "paper PMC7672431", "about": "“NMR structure of a vestigial nuclease provides insight into the evolution of functional transitions in viral dsDNA packaging motors” (Nucleic Acids Research, 2020)", "molecules": {"B1": {"name": "pRNA A-helix mimic, 3'-fluorescein (structured_RNA)", "RNA": "UCAAUGGUACGGUACUUCCAUUGUCAUGUUUUUCAUGGCAAAAGUGCACGCUACUUUGAU"}, "B2": {"name": "phi29 gp16 CTD-L (residues 208–332; inter-domain linker and C-terminal domain of the packaging ATPase) (domain or fragment, bacteriophage phi29, UniProt P11014 208-332, looked up)", "chain": "LIDGTEYGEMSLDNQFIGDSQVFIEKRSKDSKFVFSIVYNGFTLGVWVDVNQGLMYIDTAHDPSTKNVYTLTTDDLNENMMLITNYKNNYHLRKLASAFMNGYLRFDNQVIRNIAYELFRKMRIQ", "notes": "DNA packaging ATPase gp16 of bacteriophage phi29 (332 amino acids), residues 208-332: inter-domain linker plus C-terminal domain; Cloned between NdeI and XhoI of pET30a, which would add a C-terminal His6 tag (surmised); Isotope-labelled for the NMR experiments; also called gp16 CTD-L (208–332); source: E. coli BL21(DE3), pET30a, purified (Talon resin, HiTrap Q HP)"}, "B3": {"name": "22 bp dsDNA, 3'-fluorescein (dsDNA)", "DNA 1": "GGTATCATGTGAGGGTGGGGGC", "DNA 2": "GCCCCCACCCTCACATGATACC"}, "B4": {"name": "phi29 DNA packaging ATPase gp16, full length, assembled as a pentameric ring in the packaging motor on procapsids, P11014 1-332 (enzyme)", "chain": "MDKSLFYNPQKMLSYDRILNFVIGARGIGKSYAMKVYPINRFIKYGEQFIYVRRYKPELAKVSNYFNDVAQEFPDHELVVKGRRFYIDGKLAGWAIPLSVWQSEKSNAYPNVSTIVFDEFIREKDNSNYIPNEVSALLNLMDTVFRNRERVRCICLSNAVSVVNPYFLFFNLVPDVNKRFNVYDDALIEIPDSLDFSSERRKTRFGRLIDGTEYGEMSLDNQFIGDSQVFIEKRSKDSKFVFSIVYNGFTLGVWVDVNQGLMYIDTAHDPSTKNVYTLTTDDLNENMMLITNYKNNYHLRKLASAFMNGYLRFDNQVIRNIAYELFRKMRIQ"}}, "key": {"[1]": {"target": "phi29 gp16 CTD (residues 223–332; C-terminal domain of the packaging ATPase) (bacteriophage phi29) (UniProt P11014)", "test": "AUC; sedimentation velocity, 42 000 rpm, 30°C, c(s) distribution in SEDFIT; CTD-L at 25 and 55 μM, CTD at 30 and 85 μM"}, "[2]": {"target": "T1, gp16 CTD (C-terminal domain of DNA packaging ATPase) (bacteriophage phi29, UniProt P11014 223-332)", "T1 sequence": "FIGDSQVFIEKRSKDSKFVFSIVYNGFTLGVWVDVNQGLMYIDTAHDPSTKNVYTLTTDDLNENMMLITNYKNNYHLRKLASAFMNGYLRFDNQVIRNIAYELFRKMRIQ", "test": "fluorescence intensity titration; Fluorescence: 50 mM sodium phosphate pH 6.5, 200 mM NaCl, temperature not stated; NMR: same buffer plus 0.02% NaN3, 2 mM DSS, ~100 uM protein, 303 K", "details": "protein: recombinant, tags: His tag implied (pET30a NdeI/XhoI, Talon resin)"}, "[3]": {"target": "the molecule itself", "test": "AUC; sedimentation velocity, 42 000 rpm, 30°C, c(s) distribution in SEDFIT; CTD-L at 25 and 55 μM, CTD at 30 and 85 μM"}, "[4]": {"target": "T2, phi29 DNA packaging ATPase gp16, full length, assembled as a pentameric ring in the packaging motor on procapsids (bacteriophage phi29), P11014", "T2 chain": "B4 chain", "test": "cryo-EM structure; NMR structure of the CTD fitted into a ∼5.2 Å cryoEM map of phi29 particles stalled during packaging with γ-S-ATP (map of ref. 25; CTD density 5-fold averaged)", "details": "remark: other sources report otherwise"}}, "data": [{"molecule": "phi29 gp16 CTD (residues 223–332; C-terminal domain of the packaging ATPase) (from UniProt P11014 223-332) (domain or fragment)", "values": [{"measurement": "percent dimers at 30 and 85 μM", "setting": "[1]", "value": 2, "unit": "%"}]}, {"molecule": "B1", "values": [{"measurement": "Kd", "setting": "[2]; label: 3' fluorescein (36FAM), hairpin", "value": 3.2, "unit": "µM"}]}, {"molecule": "B2", "values": [{"measurement": "stoichiometry N", "setting": "[3]", "value": 2}]}, {"molecule": "B3", "values": [{"measurement": "Kd", "setting": "[2]; label: 3' fluorescein (36FAM) on strand 1, blunt", "value": 3.1, "unit": "µM"}]}, {"molecule": "B4", "values": [{"measurement": "stoichiometry N", "setting": "[4]", "value": 5}]}]}
